This note sets out measurements from patent publication US10188742B2, “Bi-specific antibodies and uses thereof” (ACADEMIA SINICA, priority 2014, dated 2019).

The test system of series [1] is MDA-MB-468 cells (EGFR+). Briefly: Cytotoxicity assay of Doxisome with h6.3 BsAbs (3H-thymidine). Format: cell-based, human. The following applies: compared with Doxisome alone.
The test system of series [2] is A431 cells (EGFR+). In words: Flow cytometry: BsAb-directed PEG-liposome Texas Red / PEG-Qdot655 on cells. Type of series: cell-based, human. The following applies: PEG-liposome Texas Red and PEG-Qdot655, 10 μg/mL BsAb. The protocol:
PEG2×TAG72 or control PEG2×DNS BsAbs (10 μg/mL) were incubated with A-375 (TAG72−), MCF-7 (TAG72+), Jurkat (TAG72+) or OVCAR-3 (TAG72+) cells at 4° C. for 30 min followed by FITC-labeled goat anti-human immunoglobulin second antibody (2 μg/mL) (Jackson ImmunoResearch Laboratories, West Grove, Pa.) or FITC-labeled 4arm-PEG (2 μg/mL). Tumor-specific targeting of PEGylated compounds was also examined by staining A431 (EGFR^high), and Raji (CD19^high) cell lines with 10 μg/mL of h6.3Fab×EGFR or h6.3Fab×CD19 BsAbs in PBS containing 0.05% BSA (staining buffer) at 4° C. for 30 min. The cells were washed with cold PBS for 3 times. PEG-Qdot655 (8 nM) (Invitrogen, Grand Island, N.Y.) or PEG-liposomal Texas-Red (100 nm size, 50 μM, lipid conc.) (FormuMax Scientific, Palo Alto, Calif.) in staining buffer was added to cells for 30 min at 4° C. Raji cells (CD19+) or SKBR3 cells (HER2+) were incubated with 10 μg/ml h15-2b-knob/BU12-hole, h15-2b-knob/anti-Her2-hole, h6-3-knob/BU12-hole or h6-3-knob/anti-Her2-hole BsAbs, washed and incubated with 0.25 μg/ml FITC-labeled goat anti-human IgG or 10 nM methoxy-PEG Qdot 655 at 4° C. for 30 min. After washing with cold PBS, the surface fluorescence of 10^4 viable cells was measured by FACScaliber flow cytometer (Becton Dickinson, Mountain View, Calif., USA) then analyzed with Flowjo (Tree Star Inc., San Carlos, Calif., USA). […]
For orientation: In flow cytometry, cells or beads pass a laser one at a time.

Series [3] is described as follows: ELISA PEG binding of h6.3 BsAbs. The following applies: FIG. 14A. How it is done:
[…] The plates were washed with PBS-T (PBS containing 0.05% Tween-20) three times. Rabbit anti-6×His (2 μg/mL) supplemented with HRP-conjugated goat anti-rabbit (2 μg/mL) or HRP-conjugated goat Ig anti human IgG Fab (2 μg/mL) (Jackson ImmunoResearch Laboratories, West Grove, Pa.) in 50 μL dilution buffer were added for 1 h at room temperature. The plates were washed with PBS-T (PBS containing 0.05% Tween-20) three times and with PBS two times. Bound peroxidase activity was measured by adding 150 μL/well ABTS substrate solution (BioLegend, San Diego, Calif.) for 30 min at room temperature. The absorbance (405 nm) of wells was measured in a microplate reader (Molecular Device, Menlo Park, Calif.).
The PEG-binding kinetics of h6-3Fab×EGFR and h6.3Fab×CD19 BsAbs were verified by Microscale Thermophoresis (MST) (FIGS. 14D and 14E).

Series [4] relates to Ramos (CD19+) and A431 (EGFR+) tumor. In words: In vivo optical imaging of PEG-NIR797 probes. Also noted: species or system BALB/c nude mice. The following applies: i.v. BsAb and PEG-NIR797; 45 min, 24 and 48 hours. The protocol: The mice were then imaged at 45 min, 24 and 48 hours after injection using an IVIS spectrum optical imaging system.
For series [5], the system named is A431 (EGFR+) cells. Briefly: Cytotoxicity assay of Doxisome with h6.3 BsAbs (3H-thymidine). Format: cell-based, human. The following applies: compared with Doxisome alone. The protocol: A431 (EGFR^high) and Raji (CD19^high) cells (5000 cells/well) were seeded in 96-well plates overnight. Fifteen microgram per mL of h6.3Fab×EGFR or h6.3Fab×CD19 BsAbs were added to the cells for 30 min at 37° C. and followed by graded concentrations of free doxorubicin or PEGylated liposomal doxorubicin (Doxisome®, Taiwan Liposome Company Ltd., Taipei, Taiwan) was added to the cells in triplicate at 37° C. for 4 h. The cells were subsequently washed once and incubated for an additional 48 h in fresh culture medium and then pulsed for 16 h with ^3H-thymidine (1 μCi/well). Results are expressed as percent inhibition of ^3H-thymidine incorporation into cellular DNA in comparison to untreated cells.
Next, the ability of whether h6.3Fab×CD19 and h6.3Fab×EGFR BsAbs could increase the cytotoxicity of the drug-loaded nanoparticles (NPs) to antigen-positive cancer cells was investigated. Raji (CD19+) and A431 (EGFR+) cells were incubated with h6.3Fab×CD19 and h6.3Fab×EGFR, followed by the addition of graded concentrations of Doxisome (i.e., PEGylated liposomal doxorubicin).

Series [6] has as its system A431 (EGFR+) tumor cells. In words: Confocal live cell imaging of PEG-Qdot655 internalization. Type of series: cell-based, human. The following applies: 10 μg/mL BsAb, 16 nM PEG-Qdot655. How it is done: The coverslips (30 mm) in POC chambers were coated with 10 μg/mL poly-L-lysine in PBS for 30 min at room temperature. The coverslips were washed twice with PBS and then 5×10^4 cells/chamber of A431 (EGFR+) tumor cells were seeded on the coverslips. A431 cells were incubated with 10 μg/mL of h6.3Fab×EGFR or h6.3Fab×CD19 BsAbs at 37° C. for 30 min containing 1 μg/mL of Hoechst 33342 and 100 nM of LysoTracker® Red DND-99 (Invitrogen Life Technologies Corporation, NY, USA). The cells were washed with culture medium for 2 times. Cell imaging was recorded with an Axiovert 200M Confocal Microscope (Carl Ziess Inc., Thornwood, N.Y.) after adding 16 nM of PEG-Qdot655 solution (Invitrogen Life Technologies Corporation, NY, USA).
To verify whether BsAb-targeted substance could be internalized by antigen-positive cancer cells, live cell imaging was performed by staining cells with lysosome tracker and BsAbs, followed by the addition and incubation of PEG-Qdot655.

Series [7] concerns the target BSA (Bos taurus, UniProt P02769). Briefly: ELISA antigen binding of BsAbs, control protein. The protocol:
The anti-PEG binding specificity of BsAbs was measured by adding graded concentrations of PEG2×TAG72, PEG2×DNS, hCC49 scFv, h6.3Fab×EGFR or h6.3Fab×CD19 in 50 μL 2% skim milk to the mucin, BSA-PEG5000, NH2-PEG3k-NH2 or BSA coated plates at RT for 1 h. The plates were washed with PBS-T (PBS containing 0.05% Tween-20) three times. Rabbit anti-6×His (2 μg/mL) supplemented with HRP-conjugated goat anti-rabbit (2 μg/mL) or HRP-conjugated goat Ig anti human IgG Fab (2 μg/mL) (Jackson ImmunoResearch Laboratories, West Grove, Pa.) in 50 μL dilution buffer were added for 1 h at room temperature. The plates were washed with PBS-T (PBS containing 0.05% Tween-20) three times and with PBS two times. Bound peroxidase activity was measured by adding 150 μL/well ABTS substrate solution (BioLegend, San Diego, Calif.) for 30 min at room temperature. The absorbance (405 nm) of wells was measured in a microplate reader (Molecular Device, Menlo Park, Calif.).
Binding of the BsAbs was detected by ELISA. Microtiter plates were first coated with antigens and then PEG2×TAG72, PEG2×DNS BsAbs or hCC49 (anti-TAG72) single chain antibody was added. After the plates were extensively washed to remove unbound antibodies, the remaining bound antibodies in each well were detected with HRP-conjugated secondary antibody. […] In sum, PEG2×TAG72 anti-PEG (hE11) BsAb of example 1.2 can bind both PEG and tumor antigens. […]

Chain of BSA (P02769 25-607): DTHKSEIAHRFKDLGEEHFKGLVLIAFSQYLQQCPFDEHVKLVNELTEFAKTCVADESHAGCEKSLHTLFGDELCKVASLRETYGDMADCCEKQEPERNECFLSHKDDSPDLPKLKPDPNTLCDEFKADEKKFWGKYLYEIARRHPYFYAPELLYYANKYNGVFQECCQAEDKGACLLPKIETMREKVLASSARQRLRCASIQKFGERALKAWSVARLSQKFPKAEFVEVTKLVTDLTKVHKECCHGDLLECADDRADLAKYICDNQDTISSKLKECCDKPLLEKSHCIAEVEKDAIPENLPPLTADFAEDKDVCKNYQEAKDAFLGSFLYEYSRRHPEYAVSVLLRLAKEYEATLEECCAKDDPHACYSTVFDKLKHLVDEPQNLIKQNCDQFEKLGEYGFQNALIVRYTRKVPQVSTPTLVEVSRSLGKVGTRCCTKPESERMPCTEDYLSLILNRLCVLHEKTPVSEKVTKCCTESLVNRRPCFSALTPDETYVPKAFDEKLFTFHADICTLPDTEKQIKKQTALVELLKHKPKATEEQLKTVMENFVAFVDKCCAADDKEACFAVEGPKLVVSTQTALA

B1: h6.3Fab×EGFR: monovalent humanized anti-PEG h6.3 Fab fused to 11F8 anti-EGFR dsFv; SEQ ID NO 9, 10, 4, 7, 6 (protein)
chain 1: DIVMTQSPDSLAVSLGERATINCKSSQSVLYSSNQMNYLAWYQQKPGQPPKLLIYWASTRESGVPDRFSGSGSGTDFTLTISSLQAEDVAVYYCLQYLSSWTFGGGTKLEIKTYSLSSTLTLSKADYEKHKLYACEVTHQGLSSPVTKSFNRGEC
chain 2: QVQLVQSGSELKKPGASVKVSCKASGYTFKNYGMNWVRQAPGQGLEWMGWINTYTGQPIYANDFKGRFVFSLDTSVSTAYLQISSLKAEDTAVYYCARDWGPYWGQGTLVTVSSASTKGPSVFPLAPSSKSTSGGTAALGCLVKDYFPEPVTVSWNSGALTSGVHTFPAVLQSSGLYSLSSVVTVPSSSLGTQTYICNVNHKPSNTKVDKRVEPKSCDK
chain 3: VDLVTVSSASTGGGSGQLGGGGS
chain 4: QVQLQESGPGLVKPSQTLSLTCTVSGGSISSGDYYWSWIRQPPGKCLEWIGYIYYSGSTDYNPSLKSRVTMSVDTSKNQFSLKVNSVTAADTAVYYCARVSIFGVGTFDYWGQGTLVTVSSGGGGSGGGGSGGGGSEIVMTQSPATLSLSPGERATLSCRASQSVSSYLAWYQQKPGQAPRLLIYDASNRATGIPARFSGSGSGTDFTLTISSLEPEDFAVYYCHQYGSTPLTFGCGTKAEIK
chain 5: TRHHHHHH
modifications: Humanized 6.3 VL-Ck; Humanized 6.3 VH-CH1; Peptide Linker; 11F8 anti-EGFR dsFv; 6xHis Tag
Regarding B1, the “effect on cytotoxicity of Doxisome to MDA-MB-468 cells” value in series [1] is “enhanced cytotoxicity of Doxisome”. Moreover, the “directing PEGylated substance to A431 cells” value in series [2] is “capable of directing the PEGylated substance”. The “binding to NH2-PEG10,000-NH2” value in series [3] is “bound to the NH2-PEG10,000-NH2”. For the same molecule, the “PEG-NIR797 signal in A431 tumors” value in series [4] is reported as “Enhanced signals of PEG-NIR797”. The “effect on cytotoxicity of Doxisome to A431 cells” value in series [5] is listed as “enhanced cytotoxicity of Doxisome”. In addition, the “uptake of PEG-Qdot655 into A431 cells (endocytic vesicles)” value in series [6] is listed as “displayed red fluorescence within endocytic vesicles”. Moreover, the “binding to BSA” value in series [7] was “not to the control BSA protein”.
